Source: the Human Domainome abundance scans (Beltran et al. 2025)
± gives the uncertainty stated by the source.

B1: Zinc finger MYM-type protein 2, residues 463 to 506; numbered along this chain, Q9UBW7 (parent)
chain: IMNCCEQCGEYLPSKGAGNNVLVIDGQQKRFCCQSCVSEYKQVG

Variants of: B1
Assay: abundance fitness (aPCA) (normalised: wild type 0, dead -1); higher = more abundant; growth selection in yeast, the domain comes from the species named
Details: Homo sapiens

Abundance fitness, by site and new letter:
Y11: S 0.252 ± 0.099, F -0.133 ± 0.087, I -0.145 ± 0.1, L 0.034 ± 0.1, T 0.319 ± 0.098, P 0.144 ± 0.088, Q 0.313 ± 0.11, K 0.361 ± 0.13, W -0.237 ± 0.075, R 0.219 ± 0.074, N 0.28 ± 0.097, M -0.099 ± 0.12, V 0.117 ± 0.077, H 0.298 ± 0.11, G 0.227 ± 0.073
K29: N -0.464 ± 0.21, Q -0.283 ± 0.15, E -0.231 ± 0.14, P -0.499 ± 0.12, S -0.329 ± 0.11, H 0.051 ± 0.086, L -0.067 ± 0.085, T -0.313 ± 0.14, F -0.17 ± 0.089, M -0.018 ± 0.12, Y -0.026 ± 0.15, W -0.432 ± 0.086, I -0.241 ± 0.14, G -0.234 ± 0.082, C -0.752 ± 0.26, V -0.078 ± 0.082, R -0.06 ± 0.079, A -0.235 ± 0.085
P13: H -0.187 ± 0.17, Q -0.063 ± 0.11, C 0.105 ± 0.43, E -0.171 ± 0.15, V -0.669 ± 0.4, W -0.536 ± 0.13, T -0.094 ± 0.13, L -0.438 ± 0.2, G -0.278 ± 0.1, N -0.565 ± 0.23, M -0.59 ± 0.14, R -0.515 ± 0.16, S -0.207 ± 0.12, K -0.678 ± 0.45
G16: Q 0.07 ± 0.1, T 0.202 ± 0.18, A -0.06 ± 0.1, P -0.175 ± 0.14, E 0.136 ± 0.11, R -0.562 ± 0.078, S -0.047 ± 0.12, C -0.113 ± 0.085, M 0.007 ± 0.29, H -0.249 ± 0.099, V -0.272 ± 0.14, L -0.214 ± 0.08, W -0.319 ± 0.093
V23: I 0.031 ± 0.12, K -0.052 ± 0.1, R -0.011 ± 0.085, E 0.204 ± 0.12, Y -0.093 ± 0.18, W -0.063 ± 0.086, S 0.025 ± 0.12, H -0.079 ± 0.12, Q 0.181 ± 0.15, D -0.017 ± 0.1, L -0.235 ± 0.1, N -0.123 ± 0.1, F 0.23 ± 0.28, A -0.121 ± 0.11, M 0.18 ± 0.11, T 0.15 ± 0.13, G -0.107 ± 0.076
D25: K -0.155 ± 0.14, E -0.11 ± 0.085, M -0.35 ± 0.32, T -0.06 ± 0.28, W -0.618 ± 0.21, P -0.456 ± 0.14, V -0.51 ± 0.094, Q -0.367 ± 0.17, F -0.174 ± 0.16, C -0.25 ± 0.12, H 0.126 ± 0.18, S -0.279 ± 0.14, G -0.076 ± 0.082, A -0.117 ± 0.12, R -0.229 ± 0.11, L -0.455 ± 0.13
L12: W -0.467 ± 0.089, T -0.28 ± 0.097, D -0.174 ± 0.11, Q -0.294 ± 0.1, P -0.14 ± 0.11, N -0.482 ± 0.17, K -0.312 ± 0.093, A -0.246 ± 0.091, G -0.385 ± 0.068, C -0.384 ± 0.11, R -0.498 ± 0.072, S -0.501 ± 0.13, Y -0.444 ± 0.12, E -0.004 ± 0.077, M -0.46 ± 0.14
A17: Q -0.069 ± 0.1, T -0.309 ± 0.33, H -0.337 ± 0.15, P -0.274 ± 0.11, G -0.095 ± 0.095, D 0.012 ± 0.15, V -0.223 ± 0.11, R -0.628 ± 0.11, C -0.11 ± 0.13, E 0.116 ± 0.096, L -0.188 ± 0.091, K -0.521 ± 0.16
G18: P 0.007 ± 0.19, W -0.197 ± 0.092, M -0.214 ± 0.13, L -0.432 ± 0.17, C -0.247 ± 0.15, T -0.377 ± 0.17, S -0.347 ± 0.18, E 0.302 ± 0.12, A 0.015 ± 0.13, D 0.59 ± 0.5
N19: E 0.338 ± 0.14, R -0.249 ± 0.087, I -0.141 ± 0.13, S 0.001 ± 0.12, K -0.287 ± 0.11, C -0.069 ± 0.12, F -0.023 ± 0.096, L -0.051 ± 0.1, G 0.006 ± 0.08, H -0.157 ± 0.11, W -0.212 ± 0.11, M -0.061 ± 0.19, Q -0.107 ± 0.12
Q27: R -0.206 ± 0.091, P -0.218 ± 0.12, L -0.045 ± 0.097, A -0.045 ± 0.13, F -0.173 ± 0.23, E -0.1 ± 0.11, C -0.084 ± 0.17, G -0.039 ± 0.079, V -0.144 ± 0.095, S -0.172 ± 0.12, W -0.198 ± 0.1
V21: C -0.302 ± 0.23, K 0.395 ± 0.35, D -0.014 ± 0.13, M -0.103 ± 0.11, A -0.065 ± 0.098, P -0.402 ± 0.17, G -0.129 ± 0.088, W -0.02 ± 0.11, N -0.397 ± 0.47, L -0.162 ± 0.11, Q -0.172 ± 0.13, E 0.128 ± 0.092, S -0.153 ± 0.1
